Measurements published in US20180355053A1 (published 2018).

B1: CD20-4GL-SIRPα (bispecific antibody)
heavy: not shown
light: QIVLSQSPAILSASPGEKVTMTCRASSSVSYIHWFQQKPGSSPKPWIYATSNLASGVPVRFSGSGSGTSYSLTISRVEAEDAATYYCQQWTSNPPTFGGGTKLEIKRTVAAPSVFIFPPSDEQLKSGTASVVCLLNNFYPREAKVQWKVDNALQSGNSQESVTEQDSKDSTYSLSSTLTLSKADYEKHKVYACEVTHQGLSSPVTKSFNRGEC
B2: SIRPα-CD20 (bispecific antibody)
heavy: not shown
light: B1 light
B3: CD20-2GL-SIRPα (bispecific antibody)
heavy: not shown
light: B1 light

Molecular target: CD47-His (UniProt Q08722 19-139)
Assay: SPR (Biacore)

Chain of CD47-His (Q08722 19-139): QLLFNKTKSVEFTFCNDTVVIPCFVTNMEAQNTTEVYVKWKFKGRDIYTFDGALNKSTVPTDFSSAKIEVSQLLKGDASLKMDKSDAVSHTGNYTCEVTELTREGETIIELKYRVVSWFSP

| Binder | Kd [nM] |
| --- | --- |
| B1 | 15.9 |
| B2 | 6.39 |
| B3 | 21.4 |
